# Results from IntAct's records for PubMed 11356191.
# Target: ptn13_human PTPN13 (UniProt Q12923)
# Sequence (Q12923 whole entry): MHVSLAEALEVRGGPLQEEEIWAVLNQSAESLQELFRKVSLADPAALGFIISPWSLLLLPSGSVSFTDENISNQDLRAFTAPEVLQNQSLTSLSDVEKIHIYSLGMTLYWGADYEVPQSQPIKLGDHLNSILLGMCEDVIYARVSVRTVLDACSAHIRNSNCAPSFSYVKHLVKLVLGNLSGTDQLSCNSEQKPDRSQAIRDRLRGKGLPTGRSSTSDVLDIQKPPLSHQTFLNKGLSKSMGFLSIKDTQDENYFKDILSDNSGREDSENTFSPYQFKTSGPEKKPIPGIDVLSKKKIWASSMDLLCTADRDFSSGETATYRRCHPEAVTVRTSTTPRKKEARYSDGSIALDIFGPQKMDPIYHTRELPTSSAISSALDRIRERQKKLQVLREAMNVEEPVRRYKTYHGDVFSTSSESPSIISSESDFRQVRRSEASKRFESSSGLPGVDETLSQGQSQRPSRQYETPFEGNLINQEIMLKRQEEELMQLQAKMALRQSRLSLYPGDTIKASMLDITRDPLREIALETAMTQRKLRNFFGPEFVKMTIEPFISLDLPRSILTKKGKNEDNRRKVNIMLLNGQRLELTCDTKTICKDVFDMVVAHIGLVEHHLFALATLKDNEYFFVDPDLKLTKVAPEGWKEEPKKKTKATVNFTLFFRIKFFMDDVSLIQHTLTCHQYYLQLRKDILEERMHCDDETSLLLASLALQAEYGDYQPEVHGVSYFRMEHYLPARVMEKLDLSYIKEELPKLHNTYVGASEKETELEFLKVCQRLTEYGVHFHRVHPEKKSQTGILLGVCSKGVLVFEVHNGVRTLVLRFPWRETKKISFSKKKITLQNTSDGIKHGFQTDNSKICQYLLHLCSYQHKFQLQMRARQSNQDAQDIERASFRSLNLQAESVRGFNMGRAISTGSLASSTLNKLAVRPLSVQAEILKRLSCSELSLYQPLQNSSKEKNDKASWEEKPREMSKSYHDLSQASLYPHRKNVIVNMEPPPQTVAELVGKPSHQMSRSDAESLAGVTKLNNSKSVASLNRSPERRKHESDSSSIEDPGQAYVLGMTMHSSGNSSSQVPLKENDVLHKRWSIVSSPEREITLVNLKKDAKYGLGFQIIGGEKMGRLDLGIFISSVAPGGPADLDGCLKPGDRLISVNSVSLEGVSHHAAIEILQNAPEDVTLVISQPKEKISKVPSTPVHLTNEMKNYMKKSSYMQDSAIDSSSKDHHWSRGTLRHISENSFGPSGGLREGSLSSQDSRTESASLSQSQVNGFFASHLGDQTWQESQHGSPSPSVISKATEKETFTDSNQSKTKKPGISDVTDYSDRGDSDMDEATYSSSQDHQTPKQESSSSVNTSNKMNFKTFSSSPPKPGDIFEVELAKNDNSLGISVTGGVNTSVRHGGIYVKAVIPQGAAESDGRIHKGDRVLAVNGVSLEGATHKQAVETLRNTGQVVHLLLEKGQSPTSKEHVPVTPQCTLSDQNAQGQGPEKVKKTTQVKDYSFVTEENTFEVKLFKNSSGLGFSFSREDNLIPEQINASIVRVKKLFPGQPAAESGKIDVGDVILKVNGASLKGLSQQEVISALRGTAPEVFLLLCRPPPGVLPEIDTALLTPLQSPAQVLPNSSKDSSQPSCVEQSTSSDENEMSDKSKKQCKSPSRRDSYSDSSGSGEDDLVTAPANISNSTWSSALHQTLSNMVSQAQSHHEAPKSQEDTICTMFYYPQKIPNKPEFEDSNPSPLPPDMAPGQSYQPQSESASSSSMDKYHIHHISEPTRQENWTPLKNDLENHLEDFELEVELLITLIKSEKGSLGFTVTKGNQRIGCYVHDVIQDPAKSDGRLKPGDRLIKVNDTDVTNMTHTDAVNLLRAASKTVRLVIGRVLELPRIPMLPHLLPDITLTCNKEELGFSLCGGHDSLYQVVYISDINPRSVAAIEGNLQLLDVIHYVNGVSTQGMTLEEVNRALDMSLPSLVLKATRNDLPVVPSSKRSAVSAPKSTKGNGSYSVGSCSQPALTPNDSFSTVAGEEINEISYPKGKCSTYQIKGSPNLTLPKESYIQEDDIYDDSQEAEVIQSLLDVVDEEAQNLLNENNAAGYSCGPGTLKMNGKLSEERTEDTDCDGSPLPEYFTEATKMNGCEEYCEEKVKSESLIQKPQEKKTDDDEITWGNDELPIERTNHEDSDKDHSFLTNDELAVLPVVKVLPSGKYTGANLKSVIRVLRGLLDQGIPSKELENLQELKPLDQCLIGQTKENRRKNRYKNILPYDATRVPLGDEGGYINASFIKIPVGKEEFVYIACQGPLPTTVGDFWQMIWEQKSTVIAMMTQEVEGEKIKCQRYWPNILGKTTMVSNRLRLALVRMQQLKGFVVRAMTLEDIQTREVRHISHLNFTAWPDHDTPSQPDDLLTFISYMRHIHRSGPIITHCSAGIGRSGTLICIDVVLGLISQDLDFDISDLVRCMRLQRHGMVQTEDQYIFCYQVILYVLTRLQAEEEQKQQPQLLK
substance,measurement,value
"Serine/threonine-protein kinase N2 (Homo sapiens), Q16513 C984S",effect of a mutation on the interaction,disrupting interaction
